According to paper PMC3972757:

Experiments:
ubiquitin (Homo sapiens) = ubiquitin (Homo sapiens) (UniProt P0CG48); experiment: biosensor; settings: cited from earlier work
[1] = target: catalytic domain of AMSH, AMSH 219-424 E280A (human) (UniProt O95630); experiment: ITC
[2] = target: catalytic domain of AMSH, AMSH 219-424 E280A (human) (UniProt O95630); experiment: AUC

Sequence of catalytic domain of AMSH, AMSH 219-424 E280A (human) (O95630 219-424 E280A): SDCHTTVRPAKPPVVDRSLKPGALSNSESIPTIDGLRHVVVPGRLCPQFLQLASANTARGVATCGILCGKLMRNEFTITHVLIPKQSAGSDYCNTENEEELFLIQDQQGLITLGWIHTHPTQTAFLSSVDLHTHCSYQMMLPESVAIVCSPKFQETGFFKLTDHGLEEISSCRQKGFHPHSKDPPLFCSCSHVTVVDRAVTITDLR
Sequence of STAM UIM (Q92783 168-193): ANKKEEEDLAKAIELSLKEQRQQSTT

| Kd [1] | dH [1] | stoichiometry N [2] | Substance | Kd (ubiquitin (Homo sapiens)) |
| --- | --- | --- | --- | --- |
|  |  |  | STAM UIM (from UniProt Q92783) | 182 µM |
| 1.4 µM | -15.1 kcal/mol | 1 | SH3 domain of STAM2 (from UniProt O75886 202-261) (domain or fragment) |  |
